B1: single-domain antibody sdAb-B6 (VHH)
VHH: EVQLQASGGGLVQAGDSLRLSCVAVSGRTISTFAMGWFRQAPGKEREFVATINWSGSSARYADPVEGRFTISRDDAKNTVYLEMSSLKPGDSAVYYCASGRYLGGITSYSQGDFAPWGQGTQVTVSS
notes: not shown: His6, C-terminal, kept
B2: single-domain antibody sdAb-C2 (VHH)
VHH: EVQLQASGGGLVRPGGSLRLSCAASGFTFSSYAMMWVRQAPGKGLEWVSAINGGGGSTSYADSVKGRFTISRDNAKNTLYLQMNSLKPEDTAVYYCAKYQAAVHQEKEDYWGQGTQVTVSS
notes: as for B1
B3: single-domain antibody sdAb-E2 (VHH)
VHH: EVQLQASGGGLVQAGGSLRLSCAASGRTDSTQHMAWFRQAPGKEREFVTAIQWRGGGTSYTDSVKGRFTISRDNAKNTVYLEMNSLKPEDTAVYYCATNTRWTYFSPTVPDRYDYWGQGTQVTVSS
notes: as for B1
B4: single-domain antibody sdAb-N3 (VHH)
VHH: KVKLQQSGGGLVQTGGSLRLSCAPSGRTFSVNAMGWYRQAPGKQREPVALISTGGSTNYADSVKGRFTISRDNVKNTVYLQMNTLKPEDTAVYYCYTERWKPRGIERDWGQGTQVTVSS
notes: as for B1

Tests used:
Assay in all cases: pull-down
Details in all cases: both partners purified
[1] = target: T1, SARS-CoV-2 Nucleocapsid (N) protein, full-length (SARS-CoV-2, reference Wuhan-Hu-1 …, UniProt P0DTC9)
T1 construct: also called full-length N; FL

[2] = target: T2, SARS-CoV-2 N protein RNA-binding domain (residues 49-174) (SARS-CoV-2, UniProt P0DTC9)
T2 construct: also called N^49-174; N^RBD

[3] = target: T3, SARS-CoV-2 N protein C-terminal intrinsically disordered region (residues 365-419) (SARS-CoV-2, reference Wuhan-Hu-1 …, UniProt P0DTC9)
T3 construct: also called C-IDR

| Binder | binding result [1] | binding result [2] | binding result [3] |
| --- | --- | --- | --- |
| B1 | binds | – | – |
| B2 | binds | binds | – |
| B3 | binds | – | – |
| B4 | binds | – | binds |
